Laboratory results: paper PMC12522135, “Engineering a Coiled-Coil Protein for DARPin Presentation as a Potent SARS-CoV‑2 Therapeutic” (Biomacromolecules, 2025)

target: SARS-CoV-2 RBD protein (SARS-CoV-2 (Wuhan-Hu-1), UniProt P0DTC2 319-541); assay: BLI; settings: both partners purified

Row | Binder | Kd
1 | Linear D1 (designed binder) DLGKKLLQAARAGQLDEVRELLKAGADVNAKDREGITPLHLAAQHGHLEIVEVLLKAGADVNAKDVWGRTPLHLAAWQGHLEIVEVLLKAGADVNAKDLAGATPLHVAALYGHLEIVEVLLKAGADVNAQDKSGKTPADLAARAGHQDIAEVLQKAAGGGSGGGSGGGSGGGSDLGKKLLQAARAGQLDEVRELLKAGADVNAKDREGITPLHLAAQHGHLEIVEVLLKAGADVNAKDVWGRTPLHLAAWQGHLEIVEVLLKAGADVNAKDLAGATPLHVAALYGHLEIVEVLLKAGADVNAQDKSGKTPADLAARAGHQDIAEVLQKAAGGGSGGGSGGGSGGGSDLGKKLLQAARAGQLDEVRELLKAGADVNAKDREGITPLHLAAQHGHLEIVEVLLKAGADVNAKDVWGRTPLHLAAWQGHLEIVEVLLKAGADVNAKDLAGATPLHVAALYGHLEIVEVLLKAGADVNAQDKSGKTPADLAARAGHQDIAEVLQKAA | < 1 pM
2 | HEX-D1 (designed binder) DLGKKLLQAARAGQLDEVRELLKAGADVNAKDREGITPLHLAAQHGHLEIVEVLLKAGADVNAKDVWGRTPLHLAAWQGHLEIVEVLLKAGADVNAKDLAGATPLHVAALYGHLEIVEVLLKAGADVNAQDKSGKTPADLAARAGHQDIAEVLQKAAGGGSGGGSGGGSGGGSGELKAIAQELKAIAKELKAIAWELKAIAQGAGGGGSGGGSGGGSGGGSDLGKKLLQAARAGQLDEVRELLKAGADVNAKDREGITPLHLAAQHGHLEIVEVLLKAGADVNAKDVWGRTPLHLAAWQGHLEIVEVLLKAGADVNAKDLAGATPLHVAALYGHLEIVEVLLKAGADVNAQDKSGKTPADLAARAGHQDIAEVLQKAA | < 1 pM
3 | HEX-D2 (designed binder) DLGKKLLQAARAGQLDEVRELLKAGADVNAKDREGKTPLHVAAQEGHLEIVEVLLKAGADVNAKDVWGRTPLHLAAWIGHLEIVEVLLKAGADVNAKDVSGATPLHAAALHGHLEIVEVLLNAGADVNAQDKSGKTPADLAARAGHQDIAEVLQKAAGGGSGGGSGGGSGGGSGELKAIAQELKAIAKELKAIAWELKAIAQGAGGGGSGGGSGGGSGGGSDLGKKLLQAARAGQLDEVRELLKAGADVNAKDREGKTPLHVAAQEGHLEIVEVLLKAGADVNAKDVWGRTPLHLAAWIGHLEIVEVLLKAGADVNAKDVSGATPLHAAALHGHLEIVEVLLNAGADVNAQDKSGKTPADLAARAGHQDIAEVLQKAA | < 1 pM
4 | HEX-D3 (designed binder) DLGKKLLQAARAGQLDEVRELLKAGADVNAKDQEGITPLHVAAHQGHLEIVEVLLKAGADVNAKDVWGRTPLHLAAWRGHLEIVEVLLKAGADVNAKDHAGATPLHAAALSGHLEIVEVLLKAGADVNAQDKSGKTPADLAARAGHQDIAEVLQKAAGGGSGGGSGGGSGGGSGELKAIAQELKAIAKELKAIAWELKAIAQGAGGGGSGGGSGGGSGGGSDLGKKLLQAARAGQLDEVRELLKAGADVNAKDQEGITPLHVAAHQGHLEIVEVLLKAGADVNAKDVWGRTPLHLAAWRGHLEIVEVLLKAGADVNAKDHAGATPLHAAALSGHLEIVEVLLKAGADVNAQDKSGKTPADLAARAGHQDIAEVLQKAA | < 1 pM
5 | Linear D2 (designed binder) DLGKKLLQAARAGQLDEVRELLKAGADVNAKDREGKTPLHVAAQEGHLEIVEVLLKAGADVNAKDVWGRTPLHLAAWIGHLEIVEVLLKAGADVNAKDVSGATPLHAAALHGHLEIVEVLLNAGADVNAQDKSGKTPADLAARAGHQDIAEVLQKAAGGGSGGGSGGGSGGGSDLGKKLLQAARAGQLDEVRELLKAGADVNAKDREGKTPLHVAAQEGHLEIVEVLLKAGADVNAKDVWGRTPLHLAAWIGHLEIVEVLLKAGADVNAKDVSGATPLHAAALHGHLEIVEVLLNAGADVNAQDKSGKTPADLAARAGHQDIAEVLQKAAGGGSGGGSGGGSGGGSDLGKKLLQAARAGQLDEVRELLKAGADVNAKDREGKTPLHVAAQEGHLEIVEVLLKAGADVNAKDVWGRTPLHLAAWIGHLEIVEVLLKAGADVNAKDVSGATPLHAAALHGHLEIVEVLLNAGADVNAQDKSGKTPADLAARAGHQDIAEVLQKAA | < 1 pM
6 | Linear D3 (designed binder) DLGKKLLQAARAGQLDEVRELLKAGADVNAKDQEGITPLHVAAHQGHLEIVEVLLKAGADVNAKDVWGRTPLHLAAWRGHLEIVEVLLKAGADVNAKDHAGATPLHAAALSGHLEIVEVLLKAGADVNAQDKSGKTPADLAARAGHQDIAEVLQKAAGGGSGGGSGGGSGGGSDLGKKLLQAARAGQLDEVRELLKAGADVNAKDQEGITPLHVAAHQGHLEIVEVLLKAGADVNAKDVWGRTPLHLAAWRGHLEIVEVLLKAGADVNAKDHAGATPLHAAALSGHLEIVEVLLKAGADVNAQDKSGKTPADLAARAGHQDIAEVLQKAAGGGSGGGSGGGSGGGSDLGKKLLQAARAGQLDEVRELLKAGADVNAKDQEGITPLHVAAHQGHLEIVEVLLKAGADVNAKDVWGRTPLHLAAWRGHLEIVEVLLKAGADVNAKDHAGATPLHAAALSGHLEIVEVLLKAGADVNAQDKSGKTPADLAARAGHQDIAEVLQKAA | < 1 pM
